# Results as given in paper PMC10592355.
# Legend:
# [1] = test system: TyrRS K244Q (Homo sapiens); assay: filter binding; details: Filter binding: 10 mM HEPES pH 7.5, 4 mM KCl, 0.02 mg/mL BSA, 0.2 mM DTT, 30 min RT, TyrRS 125 nM to 8 uM, wash 60 mM HEPES pH 7.5, 10 mM MgCl2; EMSA …
# [2] = test system: TyrRS WT (Homo sapiens); assay: filter binding; details: Filter binding: 10 mM HEPES pH 7.5, 4 mM KCl, 0.02 mg/mL BSA, 0.2 mM DTT, 30 min RT, TyrRS 125 nM to 8 uM, wash 60 mM HEPES pH 7.5, 10 mM MgCl2; EMSA …
substance,measurement,setting,value
human tRNATyr transcript,Kd,[1],1180 nM
same,Kd,[2],849 nM
